Data published in patent publication US7255862.

Columns and labels:
[1] = target: feline immunodeficiency virus (FIV) Env, Villefranche strain, expressed by ALVAC recombinants vCP242 / vCP255 (feline immunodeficiency virus, Villefranche strain); assay: sandwich kinetic ELISA, plate coated with pooled FIV env-specific MAb 2 ug/well, env lysate 5 ug/well, control rabbit serum 1:100
[2] = target: feline immunodeficiency virus (FIV) Env, Villefranche strain, expressed by ALVAC recombinants vCP242 / vCP255 (feline immunodeficiency virus, Villefranche strain); assay: sandwich kinetic ELISA, plate coated with pooled FIV gag-specific MAb 2 ug/well (mismatched capture control), env lysate 0.2 ug/well, control rabbit serum 1:100
[3] = target: feline immunodeficiency virus (FIV) Env, Villefranche strain, expressed by ALVAC recombinants vCP242 / vCP255 (feline immunodeficiency virus, Villefranche strain); assay: sandwich kinetic ELISA, plate coated with pooled FIV env-specific MAb 2 ug/well, env lysate 0.2 ug/well, control rabbit serum 1:100
[4] = target: feline immunodeficiency virus (FIV) Env, Villefranche strain, expressed by ALVAC recombinants vCP242 / vCP255 (feline immunodeficiency virus, Villefranche strain); assay: sandwich kinetic ELISA, plate coated with pooled FIV env-specific MAb 2 ug/well, env lysate 1 ug/well, control rabbit serum 1:100
[5] = target: feline immunodeficiency virus (FIV) Env, Villefranche strain, expressed by ALVAC recombinants vCP242 / vCP255 (feline immunodeficiency virus, Villefranche strain); assay: sandwich kinetic ELISA, plate coated with pooled FIV gag-specific MAb 2 ug/well (mismatched capture control), env lysate 1 ug/well, control rabbit serum 1:100
[6] = target: feline immunodeficiency virus (FIV) Env, Villefranche strain, expressed by ALVAC recombinants vCP242 / vCP255 (feline immunodeficiency virus, Villefranche strain); assay: sandwich kinetic ELISA, plate coated with pooled FIV gag-specific MAb 2 ug/well (mismatched capture control), env lysate 5 ug/well, control rabbit serum 1:100

## Rabbit A039 prebleed serum
[1]
  KELISA (mOD/min): 0.9 mOD/min
[2]
  KELISA (mOD/min): 1 mOD/min
[3]
  KELISA (mOD/min): 0.9 mOD/min
[4]
  KELISA (mOD/min): 0.7 mOD/min
[5]
  KELISA (mOD/min): 1.2 mOD/min
[6]
  KELISA (mOD/min): 1 mOD/min
